± gives the uncertainty stated by the source.
Test: self-splicing fitness, log relative to wild type (ln ratio); higher = more splicing; Tetrahymena group I intron in knt gene, E. coli kanamycin selection, DiMSum; sequences stand for … in CUCUCU…GGAGGGAAAAGUUAUCAGGCAUGCACCUGGUAGCUAGUCUUUAAACCAAUAGAUUGCAUCGGUUUAAAAGGCAAGACCGUCAAAUUGCGGGAAAGGGGUCAACAGCCGUUCAGUACCAAGUCUCAGGGGAAACUUUGAGAUGGCCUUGCAAAGGGUAUGGUAAUAAGCUGACGGACAUGGUCCUAACCACGCAGCCAAGUCCUAAGUCAACAGAUCUUCUGUUGAUAUGGAUGCAGUUCACAGACUAAAUGUCGGUCGGGGAAGAUGUAUUCUUCUCAUAAGAUAUAGUCGGACCUCUCCUUAAUGGGAGCUAGCGGAUGAAGUGAUGCAACACUGGAGCCGCUGGGAACUAAUUUGUAUGCGAAAGUAUAUUGAUUAGUUUUGGAGUACUCGUGGUCG
Outline: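 Pooled colonies went to amplicon sequencing on an Illumina HiSeq 2500 after six replicate transformations. The plates were LB agar with 100 μg/mL carbenicillin, 50 μM IPTG and 0.2% rhamnose, with or without 25 μg/mL kanamycin, incubated overnight at 37°C or 30°C. The E. coli BL21(DE3) library had all eight P1ex-region intron nucleotides randomised, the intron placed in the knt kanamycin-resistance gene on pET-22b(+). DiMSum fitness is the error-weighted combination of replicate fold changes, kanamycin against none, normalised to wild type.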

Sequence	self-splicing fitness (ln) (30 °C)	self-splicing fitness (ln) (37 °C)
ACUCAGCAAUAUUACGUGGG	-3.7 ± 0.18	-2.9 ± 0.2
ACGUAGCAAUAUUACGGGUA	-1.29 ± 0.13	-0.928 ± 0.12
CUCAAGCAAUAUUACGAGGC	-3.51 ± 0.3	-2.65 ± 0.27
UUAUAGCAAUAUUACGUUGC	-3.27 ± 0.36	-3.07 ± 0.4
AUAGAGCAAUAUUACGUCAG	-3.64 ± 0.28	-2.66 ± 0.23
AGAUAGCAAUAUUACGAGAC	-3.94 ± 0.23	-2.96 ± 0.22
CCCCAGCAAUAUUACGGCUG	-4.06 ± 0.19	-1.99 ± 0.15
AUCCAGCAAUAUUACGCACG	-1.68 ± 0.12	-0.334 ± 0.13
UAGAAGCAAUAUUACGGCAG	-0.136 ± 0.12	0.24 ± 0.16
UUGGAGCAAUAUUACGCACG	-1.33 ± 0.17	-1.92 ± 0.29
UAAAAGCAAUAUUACGGCGU	-1.12 ± 0.084	-0.0589 ± 0.1
CCAGAGCAAUAUUACGCUCA	-3.24 ± 0.38	-1.42 ± 0.37
UCACAGCAAUAUUACGAUGA	-1.29 ± 0.1	-0.136 ± 0.11
CCUGAGCAAUAUUACGGGUC	-2.95 ± 0.17	-2.87 ± 0.27
AGACAGCAAUAUUACGCCGU	-3.43 ± 0.21	-2.91 ± 0.29
UUAAAGCAAUAUUACGGCUC	-0.0999 ± 0.18	0.714 ± 0.23
CGAGAGCAAUAUUACGAAUU	-2.77 ± 0.29	
CGCAAGCAAUAUUACGAGGA	-3.23 ± 0.24	-2.81 ± 0.29
UCAAAGCAAUAUUACGGAAG	-2.03 ± 0.17	-2.38 ± 0.28
CCCCAGCAAUAUUACGUUGA	-4.14 ± 0.13	-2.79 ± 0.12
CGCGAGCAAUAUUACGAGGU	-2.22 ± 0.25	-1.93 ± 0.23
AUCAAGCAAUAUUACGUCCA	-1.23 ± 0.09	-0.319 ± 0.11
AUACAGCAAUAUUACGCGUA	-1.76 ± 0.11	-0.809 ± 0.097
GCGUAGCAAUAUUACGUUUC	-4.29 ± 0.34	-1.83 ± 0.22
UUUGAGCAAUAUUACGCAGG	-2.99 ± 0.21	-1.34 ± 0.18

Sequence	self-splicing fitness (ln) (30 °C)	self-splicing fitness (ln) (37 °C)
AAUUAGCAAUAUUACGAACC	-0.0097 ± 0.32	-0.827 ± 0.36
UAGUAGCAAUAUUACGUGUA	-3.16 ± 0.21	-0.527 ± 0.12
GUAAAGCAAUAUUACGAAAA	-1.52 ± 0.15	0.0796 ± 0.28
GACCAGCAAUAUUACGGCAU	0.00655 ± 0.046	0.553 ± 0.068
AAACAGCAAUAUUACGUCCG	-1.89 ± 0.082	-0.645 ± 0.1
UCACAGCAAUAUUACGAAUC		-1.26 ± 0.17
GAAAAGCAAUAUUACGGGAA	-2.07 ± 0.14	-0.425 ± 0.13
GGAUAGCAAUAUUACGUGCG	-0.974 ± 0.094	-0.046 ± 0.12
CCUCAGCAAUAUUACGGACU	-3.93 ± 0.33	-1.79 ± 0.24
GAUUAGCAAUAUUACGCGCU		-1.92 ± 0.4
UCUUAGCAAUAUUACGGUAC	-3.68 ± 0.41	-2.51 ± 0.48
UAAAAGCAAUAUUACGACAA	-0.243 ± 0.1	0.272 ± 0.11
UAGUAGCAAUAUUACGCAUU	-3.97 ± 0.21	-1.52 ± 0.14
CUUAAGCAAUAUUACGCUUA	-3.39 ± 0.32	-1.58 ± 0.2
UGUAAGCAAUAUUACGCUUU	-3.09 ± 0.26	-2.72 ± 0.27
CCGUAGCAAUAUUACGUCGA	-1.93 ± 0.14	-1.57 ± 0.13
AUGAAGCAAUAUUACGCCCG	-0.353 ± 0.25	-0.729 ± 0.38
GACAAGCAAUAUUACGAAUA	-2.03 ± 0.12	-1.17 ± 0.099
CCCAAGCAAUAUUACGCCCA	-2.33 ± 0.24	-2.46 ± 0.25
UGAUAGCAAUAUUACGCGCU	-0.577 ± 0.11	-0.36 ± 0.14
AAGGAGCAAUAUUACGUCGA	-1.74 ± 0.2	-1.89 ± 0.2
UCCAAGCAAUAUUACGGGUG	-1.63 ± 0.05	-0.583 ± 0.06
AUGCAGCAAUAUUACGUCAC		-1.09 ± 0.16
AUCCAGCAAUAUUACGAUGU	-0.743 ± 0.066	0.613 ± 0.093

Source: the supplement of paper PMC7877785
